In patent publication US20230192834A1:

Tests used:
TGFβ1 (R&D Systems) [1] = test: cell-based or functional assay
TGFβ3 (R&D Systems) [2] = target: T1, TGFβ3 (R&D Systems); test: cell-based or functional assay
T1 sequence (P10600 301-412, species assumed, looked up): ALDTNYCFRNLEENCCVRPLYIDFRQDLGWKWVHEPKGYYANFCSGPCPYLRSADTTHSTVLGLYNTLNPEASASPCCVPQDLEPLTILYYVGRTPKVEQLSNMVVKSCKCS

TGFβ2 (R&D Systems) [3] = target: T2, TGFβ2 (R&D Systems); test: cell-based or functional assay
T2 sequence (P61812 303-414, species assumed, looked up): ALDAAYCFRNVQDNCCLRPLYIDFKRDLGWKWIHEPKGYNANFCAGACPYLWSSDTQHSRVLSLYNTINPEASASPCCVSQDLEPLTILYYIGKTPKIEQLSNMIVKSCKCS

TGFβ1 (R&D Systems) [4] = test: SPR (Biacore T200), TGFβ amine-coupled to chip, 1:1 fit
TGFβ3 (R&D Systems) [5] = target: T1, TGFβ3 (R&D Systems); test: as above
TGFβ2 (R&D Systems) [6] = target: T2, TGFβ2 (R&D Systems); test: as above

TGFβ1 (R&D Systems), sequence (P01137 279-390): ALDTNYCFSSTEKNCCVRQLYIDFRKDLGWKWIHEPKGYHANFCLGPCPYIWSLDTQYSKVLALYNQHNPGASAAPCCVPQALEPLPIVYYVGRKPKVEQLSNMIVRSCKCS

TGFb1 IC50 (SMAD3 phosphorylation in CMVICs, AlphaLISA) (TGFβ1 (R&D Systems) [1]): 0.797 µg/mL | TGFb3 IC50 (SMAD3 phosphorylation in CMVICs, AlphaLISA) (TGFβ3 (R&D Systems) [2]): 0.053 µg/mL | TGFb2 IC50 (SMAD3 phosphorylation in CMVICs, AlphaLISA) (TGFβ2 (R&D Systems) [3]): 0.19 µg/mL | Kd (TGFβ1 (R&D Systems) [4]): 333 pM | Kd (TGFβ3 (R&D Systems) [5]): 5.1 pM | Kd (TGFβ2 (R&D Systems) [6]): 1840 pM
B1: Felinized anti-TGFβ1,2,3 antibody VH3.2 - VL1 (antibody, V domains shown)
VH: DVQLVESGGDLVKPGGSLRLTCVASGYTFSSNVMHWVRQAPGKGLQWVAYVIPIVDIAYYADSVKGRFTISIDNSKNTLYLQMNSLKTEDTATYYCARTLGLVLDAMDYWGQGTLVTVSS
VL: ETVLTQSPGTLSLSPGERATLSCRASQSLGSSYLAWYQQKPGQAPRLLIYGASSRAPGIPDRFSGSGSGTDFTLTISRLEPEDFAVYYCQQYADSPITFGQGTKLEIKR
